Changes are numbered by the printed parent chain. “And” between values parts separate entries of the source, which are not always exact repeats. Identical values can stand only once.
B1: Fab 24E9 (Fab, V domains shown)
VH: EVQLVESGGGLVQPGGSLRLSCAASGFTFSTYAMSWVRQAPGKGPEWVSRISSGGGSTNYADSVKGRFTISRDNAKKTLYLQMKSLKPEDTAVYYCANRAGWGMGDYWGQGTQVTVSS
VL: QTVVTQEPSLSVSPGGTVTLTCGLSSGSVTASNYPGWFQQTPGQAPRALIYSTNDRHSGVPSRFSGSISGNKAALTITGAQPEDEADYYCALDIGDITEFGGGTHLTVLG
notes: Fab
B2: Fab 18C7 (Fab, V domains shown)
VH: EVQLVESGPGLVKPSQTLSLTCTVSGGSITASFDAWSWIRQPPGKGLEWMGVIAYDGSTYYSPSLKSRTSISRDTSKNQFSLQLSSVTPEDTAVYYCARKSSWLIGYGMDYWGKGTLVTVSS
VL: QAGLTQPSALSVTLGQTAKITCQGGSLGSSYAHWYQQKPGQAPVLVIYDDDSRPSGIPERFSGSSSGGRATLTISGAQAEDEGDYYCQSADSSGNAAVFGGGTHLTVLG
notes: Fab; also called 18C7 (090-423)
B3: Fab 18C9 (Fab, V domains shown)
VH: EVQLVESGGGLVQPGGSLRLSCAASGFTFSRNAMSWVRQAPGKGLEWVSAINSGGGSTSYADSVKGRFTISRDNAKNTLYLQMNSLKPEDTAVYYCAKEGYTGWKDPMYDYWGQGTQVTVSS
VL: LNFMLTQPSALSVTLGQTAKITCQGGSLGSRYAHWYQQKPGQAPVLVIYDDDSRPSGIPERFSGSSSGGRATLTISGAQAEDDGDYYCQSADSSGNASVFGGGTHLTVLG
notes: Fab
B4: Fab 18C11 (Fab, V domains shown)
VH: B3 VH with R31S, N32Y, Y101D
VL: B2 VL with A2S, G3V, L4V, S26G, G28R
notes: Fab
B5: Fab 20A4 (Fab, V domains shown)
VH: EVQLQESGPGLVKPSQTLSLTCTVSGGSITTRYYAWSWIRQPPGKGLEWMGVIDYDGDTYYSPSLKSRTSISWDTSKNQFSLQLSSVTPEDTAVYYCARDPDVVTGFHYDYWGQGTQVTVSS
VL: LNFMLTQPPSVSGTLGKTVTISCAGTSSDIGGYNYVSWYQQLPGTAPKLLIHRVSTRASGIPDRFSGSKSGNTASLTISGLRSEDEANYYCASYRNFNNAVFGGGTQLTVLG
notes: Fab
B6: Fab 29B11 (Fab, V domains shown)
VH: EVQLVESGGGLVQPGGSLRLSCAASGFTFSSYAMSWVRQAPGKGLEWVSRISSGGISTYYADSVKGRFTISRDNAKNTLYLQMNSLKPEDTAVYYCVRYAWGVQWAFDFWGQGTQVTVSS
VL: QSVLTQPPSVSGSPGQTVTISCAGTSEDVGYGNYVSWYQQLPGMAPKLLIYDVNKRASGIADRFSGSKSGNTASLTISGLQSEDEADYYCASYRRTIDNIFGGGTHLTVLG
notes: Fab
B7: Fab 24C9 (Fab, V domains shown)
VH: QVQLVESGGGLVQPGGSLRLSCAASGFTFSSYRMYWVRQPPGKGLEWVSAISAGGGSTYYGDSVKGRFTISRDNAKNTVYLQMNSLKPEDTALYYCKKSTWADGESDYWGQGTQVTVSS
VL: B1 VL
notes: Fab
B8: Fab 41E10/35B1 (Fab, V domains shown)
VH: EVQLQESGPGLVKPSQTLSLTCTVSGGSIATSYYAWSWIRQPPGKGLEWMGVIDYDGDTYYKPSLKSRTSISRDTSKNQFSLQLSSVTPEDTAVYYCARAGLGDSYYLGTYYAMDYWGKGTLVTVSS
VL: QAVLTQPPSMSGTLGKTLTISCNGTSSDIGSGNYVSWYQQLPGTTPKLLIEGVTTRVSGIPDRFSGSKSDNTASLTISGLQSEDEATYYCASYRETNNVVFGGGTHLTVLG
notes: VL-shuffled Fab of 17F10
B9: Fab 41B5/35C1 (Fab, V domains shown)
VH: B8 VH
VL: B8 VL with A2S, V3A, N33D, V57A, G66A, G111S
notes: VL-shuffled Fab of 17F10
B10: Fab 42H1/36A1 (Fab, V domains shown)
VH: B3 VH with R31S, N32Y, Y101D
VL: B3 VL with L1A, N2Q, F3S, M4A, S30T, D83E
notes: VL-shuffled Fab of 18C11
B11: Fab 55C1 (Fab, V domains shown)
VH: B6 VH
VL: LNFMLTQPPSVSGSPGKTVTISCAGTSSDVGYGNYVSWYQQLPGTAPKLLIYNVNKRASGITDRFSGSKSGNTASLTISGLQSEDEADYYCASYRTGDNAAFGGGTKLTVLG
notes: VL-shuffled Fab of 29B11, periplasmic fraction; also called 55C1a
B12: Fab 48C10 (Fab, V domains shown)
VH: B6 VH
VL: AQSVLTQPPSVSGSPGQTVTISCAGTSEDVGYGNYVSWYQQLPGMAPKLLIYDVNKRASGIADRFSGSKSGNTASLTISGLQSEDEADYYCASYRRTIDNIFGGGTHLTVLG
notes: VL-shuffled Fab of 29B11, periplasmic fraction
B13: 133A9 (germlined variant of 68F2) (antibody, V domains shown)
VH: B5 VH with M50I, D56E, T69V, S70T, W73V, Q83K, P89A, Q117M
VL: QSALTQPPLVSGSPGQTVTISCAGANNDIGTYAYVSWYQQPPGTAPKLMIYKVTTRASGIPDRFSGSISGNTASLTISGLQSEDEADYYCASYRNFNNAVFGTGTKLTVL

Target: T1, bacterially produced human IL-6 (human, UniProt P05231 30-212)
T1 construct: also called bactIL-6; prokaryotic IL-6
Experiment: SPR; purified Fab over biotinylated IL-6 on streptavidin chip
Experimental: (§1) From the washing phase the off-rate (kd) was determined, while from the injection phase the on-rate (ka) was calculated using the concentration and off-rate as parameters.

Binder	Ka	Kd	koff	kon
B1	8.38e+08 M⁻¹	1.19 nM	0.000139 s⁻¹	117000 M⁻¹ s⁻¹
B2	5.7e+07 M⁻¹	17.5 nM	0.00185 s⁻¹	105000 M⁻¹ s⁻¹
B3	4.67e+07 M⁻¹	21.4 nM	0.00119 s⁻¹	55600 M⁻¹ s⁻¹
B4	7.05e+07 M⁻¹	14.2 nM	0.000784 s⁻¹	55200 M⁻¹ s⁻¹
B5	1.72e+08 M⁻¹	5.82 nM	0.00168 s⁻¹	288000 M⁻¹ s⁻¹
B6	4.36e+07 M⁻¹	22.9 nM	0.00298 s⁻¹	130000 M⁻¹ s⁻¹
B7	1.51e+09 M⁻¹	0.661 nM	8.77e-05 s⁻¹	133000 M⁻¹ s⁻¹

Target: T1, bacterially produced human IL-6
Experiment: SPR; purified Fab

Binder	Kd	koff
B2	9.1 nM	0.0011 s⁻¹
B8	0.54 nM	0.00016 s⁻¹
B9	0.47 nM	0.00011 s⁻¹
B10	0.75 nM	0.00015 s⁻¹
B5	2 nM	0.00062 s⁻¹

Target: T2, cynomolgus monkey IL-6 (cynomolgus monkey, UniProt P79341 28-212, limits assumed)
T2 construct: also called HIS-cyIL-6
Experiment: SPR; purified Fab

Binder	Kd	koff
B2	5.3 nM and 4.9 nM	0.00063 s⁻¹ and 0.00069 s⁻¹
B8	0.34 nM	0.00012 s⁻¹
B9	0.28 nM and 0.72 nM	8.1e-05 s⁻¹ and 0.00017 s⁻¹
B10	0.69 nM	0.00015 s⁻¹
B4	3.4 nM	0.00085 s⁻¹
B5	1.7 nM	0.00075 s⁻¹

Target: T3, eukaryotically produced human IL-6 (human, UniProt P05231 30-212)
T3 construct: also called eukIL-6; Euk IL-6
Experiment: SPR; purified Fab

Binder	Kd	koff
B2	7.7 nM and 5.2 nM	0.001 s⁻¹ and 0.00082 s⁻¹
B8	0.46 nM	0.00016 s⁻¹
B9	0.41 nM and 0.92 nM	0.00012 s⁻¹ and 0.0002 s⁻¹
B10	0.34 nM	0.00011 s⁻¹
B4	2.9 nM	0.00076 s⁻¹
B5	0.81 nM	0.0003 s⁻¹

Target: T1, bacterially produced human IL-6
Experiment: SPR; periplasmic fraction

Binder	Ka	Kd	koff	kon
B6	1.91e+09 M⁻¹	0.524 nM	0.000131 s⁻¹	251000 M⁻¹ s⁻¹
B11	7.6e+09 M⁻¹	0.132 nM	7.38e-05 s⁻¹	561000 M⁻¹ s⁻¹
B12	1.43e+09 M⁻¹	0.701 nM	0.000184 s⁻¹	262000 M⁻¹ s⁻¹

Target: T2, cynomolgus monkey IL-6
Experiment: SPR; periplasmic fraction

Binder	Ka	Kd	koff	kon
B6	1.51e+08 M⁻¹	6.61 nM	0.000746 s⁻¹	113000 M⁻¹ s⁻¹
B11	1.25e+09 M⁻¹	0.801 nM	0.000381 s⁻¹	475000 M⁻¹ s⁻¹
B12	4.1e+08 M⁻¹	2.44 nM	0.00044 s⁻¹	180000 M⁻¹ s⁻¹

Target: T3, eukaryotically produced human IL-6
Experiment: SPR; periplasmic fraction

Binder	Ka	Kd	koff	kon
B6	1.83e+09 M⁻¹	0.546 nM	0.000102 s⁻¹	187000 M⁻¹ s⁻¹
B11	5.55e+09 M⁻¹	0.18 nM	7.93e-05 s⁻¹	440000 M⁻¹ s⁻¹

Target: T1, bacterially produced human IL-6
Experiment: SPR; purified Fab; IL-6 coated on CM5 chip
Experimental: as §1

Binder	Kd	koff
B1	0.93 nM	0.00029 s⁻¹
B2	9.1 nM	0.0011 s⁻¹
B3	4.9 nM	0.00036 s⁻¹
B5	2 nM	0.00062 s⁻¹
B6	0.93 nM	0.00022 s⁻¹
B7	2.6 nM	0.00037 s⁻¹

Target: T3, eukaryotically produced human IL-6
Experiment: SPR; purified Fab; IL-6 coated on CM5 chip
Experimental: as §1

Binder	Kd	koff
B1	0.71 nM	0.00024 s⁻¹
B2	7.7 nM	0.001 s⁻¹
B3	2.4 nM	0.00021 s⁻¹
B5	0.81 nM	0.0003 s⁻¹
B6	0.51 nM	0.0001 s⁻¹
B7	1.7 nM	0.0003 s⁻¹

Target: human IL-6 (as added in the B9 and 7TD1 bioassays) (human, UniProt P05231 30-212)
Experiment: cell-based or functional assay

Binder	IC50, 7TD1 cells	Potency relative to 68F2, 7TD1 cells
B13	0.00018 nM	3.66

Target: T1, bacterially produced human IL-6
Experiment: SPR; periplasmic fraction; against parental 29B11

Binder	fold improvement KD	fold improvement ka	fold improvement kd
B11	3.97 fold	2.24 fold	1.78 fold
B12	0.75 fold	1.04 fold	0.71 fold

Target: T2, cynomolgus monkey IL-6
Experiment: SPR; periplasmic fraction; against parental 29B11

Binder	fold improvement KD	fold improvement ka	fold improvement kd
B11	8.25 fold	4.2 fold	1.96 fold
B12	2.71 fold	1.59 fold	1.7 fold

Target: T3, eukaryotically produced human IL-6
Experiment: SPR; periplasmic fraction; against parental 29B11

Binder	fold improvement KD	fold improvement ka	fold improvement kd
B11	3.03 fold	2.35 fold	1.29 fold

From patent publication US20220073604A1 (ARGENX BVBA, published 2022)
